We go through 5 molecules from patent publication US20140093973A1 (BOARD OF REGENTS OF THE UNIVERSITY OF OKLAHOMA, published 2014).

Read-outs that look alike come from different tables or passages of the source. Ends that are not written are not given here.

For experiment [1], the target named is T1, soluble HLA-A*0301 (human).
T1 construct: Member of the panel of 53 single-specificity sHLA
The experiment can be described thus: FP competition against 1.8 nM FITC-labeled P1(A*0301), 42.1 µg/ml sHLA A*0301T (2798).

Experiment [2] concerns the target soluble HLA-A*0201 (sHLA-A*0201) (human). The experiment can be described thus: FP screen.
Experiment [3] concerns the target T2, soluble HLA-B*2705 (sHLA-B*2705) (human).
T2 construct: Recombinant soluble class I with endogenous peptides, made as m1; negative control
The experiment can be described thus: FP screen.

Experiment [4] deals with T3, soluble HLA-A*6801 (sHLA-A*6801) (human).
T3 construct: Recombinant soluble class I with endogenous peptides, made as m1
The experiment can be described thus: FP screen.

Experiment [5] deals with T4, soluble HLA-A*0101 (human).
T4 construct: Member of the panel of 53 single-specificity sHLA
The experiment can be described thus: FP screen.

Experiment [6] addresses T5, soluble HLA-A*3601 (human).
T5 construct: Member of the panel of 53 single-specificity sHLA
Kind of experiment: FP screen.

Experiment [7] deals with T6, soluble HLA-A*3402 (human).
T6 construct: Member of the panel of 53 single-specificity sHLA
The experiment can be described thus: FP screen.

The target in experiment [8] is T7, soluble HLA-A*2601 (human).
T7 construct: Member of the panel of 53 single-specificity sHLA
The experiment can be described thus: FP screen.

The target of experiment [9] is T8, soluble HLA-B*1302 (human).
T8 construct: Member of the panel of 53 single-specificity sHLA
Kind of experiment: FP screen.

For experiment [10], the target named is T9, soluble HLA-B*1512 (human).
T9 construct: Member of the panel of 53 single-specificity sHLA
Kind of experiment: FP screen.

Experiment [11] concerns the target T1, soluble HLA-A*0301. Kind of experiment: FP screen.
In experiment [12] the target is T10, soluble HLA-A*3002 (human).
T10 construct: Member of the panel of 53 single-specificity sHLA
The experiment can be described thus: FP screen.

For experiment [13], the target named is T11, soluble HLA-B*1801 (human).
T11 construct: Member of the panel of 53 single-specificity sHLA
Kind of experiment: FP screen.

Experiment [14] has as its target T12, soluble HLA-B*4002 (human).
T12 construct: Member of the panel of 53 single-specificity sHLA
The experiment can be described thus: FP screen.

Experiment [15] has as its target T13, soluble HLA-B*4402 (human).
T13 construct: Member of the panel of 53 single-specificity sHLA
Kind of experiment: FP screen.

Experiment [16] has as its target T14, soluble HLA-A*4301 (sHLA-A*4301) (human).
T14 construct: Recombinant soluble class I with endogenous peptides, made as m1
Kind of experiment: FP screen.

Experiment [17] concerns the target T15, soluble HLA-A*1102 (sHLA-A*1102) (human, UniProt P04439 25-308; P61769 21-119).
T15 construct: Recombinant soluble class I with endogenous peptides, made as m1
Kind of experiment: FP screen.

Experiment [18] has as its target T16, soluble HLA-A*2402 (human).
T16 construct: Member of the panel of 53 single-specificity sHLA
Kind of experiment: FP screen of 53 sHLA with FITC-peptide.

Experiment [19] deals with T4, soluble HLA-A*0101. The experiment can be described thus: FP competition against 1.6 nM FITC-labeled P2(A*0101), 41.0 µg/ml sHLA A*0101T (C22).
The target in experiment [20] is T17, soluble HLA-A*2902 (human).
T17 construct: Member of the panel of 53 single-specificity sHLA
The experiment can be described thus: FP competition against 1.5 nM FITC-labeled P2(A*0101), 49.9 µg/ml sHLA A*2902T (1224).

Experiment [21] deals with soluble HLA-A*0201 (sHLA-A*0201) (human). Kind of experiment: FP screen. This is another data set of the same source.
For experiment [22], the target named is T2, soluble HLA-B*2705 (sHLA-B*2705). Kind of experiment: FP screen. The source holds these as a separate data set.
The target of experiment [23] is T3, soluble HLA-A*6801 (sHLA-A*6801). The experiment can be described thus: FP screen. The source holds these as a separate data set.
Experiment [24] has as its target T8, soluble HLA-B*1302. Kind of experiment: FP screen. The source holds these as a separate data set.
In experiment [25] the target is T9, soluble HLA-B*1512. The experiment can be described thus: FP screen. This is another data set of the same source.
In experiment [26] the target is T1, soluble HLA-A*0301. Kind of experiment: FP screen. This is another data set of the same source.
Experiment [27] has as its target T18, soluble HLA-A*6901 (sHLA-A*6901) (human).
T18 construct: Recombinant soluble class I with endogenous peptides, made as m1
The experiment can be described thus: FP screen.

In experiment [28] the target is T16, soluble HLA-A*2402. Kind of experiment: FP screen.
Another experiment deals with T19, soluble HLA-A*2301 (human).
T19 construct: Member of the panel of 53 single-specificity sHLA
Kind of experiment: FP screen.

The target in another experiment is T20, soluble HLA-A*6601 (human).
T20 construct: Member of the panel of 53 single-specificity sHLA
The experiment can be described thus: FP screen.

A further experiment concerns the target T21, soluble HLA-B*4501 (human).
T21 construct: Member of the panel of 53 single-specificity sHLA
The experiment can be described thus: FP screen.

Experiment [29] deals with T10, soluble HLA-A*3002. Kind of experiment: FP screen. This is another data set of the same source.
Experiment [30] addresses T11, soluble HLA-B*1801. Kind of experiment: FP screen. This is another data set of the same source.
For experiment [31], the target named is T12, soluble HLA-B*4002. The experiment can be described thus: FP screen. This is another data set of the same source.
For a further experiment, the target named is T22, soluble HLA-B*4001 (human).
T22 construct: Member of the panel of 53 single-specificity sHLA
Kind of experiment: FP screen.

For experiment [32], the target named is T13, soluble HLA-B*4402. Kind of experiment: FP screen. The source holds these as a separate data set.
Experiment [33] addresses T4, soluble HLA-A*0101. The experiment can be described thus: FP screen of 53 sHLA with FITC-peptide.
Experiment [34] deals with T17, soluble HLA-A*2902. Kind of experiment: FP screen of 53 sHLA with FITC-peptide.
The target in experiment [35] is T5, soluble HLA-A*3601. Kind of experiment: FP screen of 53 sHLA with FITC-peptide.
The target of experiment [36] is T6, soluble HLA-A*3402. The experiment can be described thus: FP screen of 53 sHLA with FITC-peptide.
Experiment [37] addresses T7, soluble HLA-A*2601. Kind of experiment: FP screen of 53 sHLA with FITC-peptide.
A further experiment concerns the target T23, soluble HLA-B*1501 (human).
T23 construct: Member of the panel of 53 single-specificity sHLA
Kind of experiment: FP screen of 53 sHLA with FITC-peptide.

For the next experiment, the target named is B*0702T (human, UniProt P61769). Kind of experiment: FP competition against 1.9 nM FITC-labeled P1(B*0702), 40 µg/ml sHLA B*0702T (955).

B1: C2(A*0301) (peptide)
peptide: SLFRAVITK
Take B1: the IC50 (usually the concentration at which inhibition is half-maximal) with soluble HLA-A*0301 [1] stood at 518 nM.

B2: KYPENKFLL, FITC-labeled A24-like peptide (peptide)
peptide: KYPENKFLL
modifications: also: FITC-labeled, position not given here
Consider B2, for which the binding result (in [2]; in [3]; in [4]; in the experiment with soluble HLA-A*0101 [5]; with soluble HLA-A*3601 [6]; with soluble HLA-A*3402 [7]) was “no binding (tested: 100 ug/ml sHLA)” each time. Besides, the binding result with soluble HLA-A*2601 [8], with soluble HLA-B*1302 [9], in the experiment with soluble HLA-B*1512 [10], with soluble HLA-A*0301 [11], with soluble HLA-A*3002 [12] and with soluble HLA-B*1801 [13] was “no binding (tested: 100 ug/ml sHLA)” each time. The binding result with soluble HLA-B*4002 [14] is “no binding (tested: 100 ug/ml sHLA)”; with soluble HLA-B*4402 [15] it was “no binding (tested: 100 ug/ml sHLA)”; in [16], “no binding (tested: 100 ug/ml sHLA)”; in experiment [17], “no binding (tested: 100 ug/ml sHLA)”; in the experiment with soluble HLA-A*2402 [18], “binds”.

B3: C1(A*0101) (peptide)
peptide: ATDFKFAMY
For B3, the IC50 in the experiment with soluble HLA-A*0101 [19] is 1570 nM; with soluble HLA-A*2902 [20] it was 8.63 µM.

B4: YTDGVPLKY, FITC-labeled A1-like peptide (peptide)
peptide: YTDGVPLKY
modifications: also: FITC-labeled, position not given here
As for B4, the binding result (in experiment [21]; in experiment [22]; in experiment [23]; in the experiment with soluble HLA-B*1302 [24]; with soluble HLA-B*1512 [25]; with soluble HLA-A*0301 [26]) was “no binding (tested: 100 ug/ml sHLA)” throughout. In addition, the binding result (in [27]; with soluble HLA-A*2402 [28]; with soluble HLA-A*2301; with soluble HLA-A*6601; with soluble HLA-B*4501; in the experiment with soluble HLA-A*3002 [29]) was “no binding (tested: 100 ug/ml sHLA)” throughout. Also, the binding result in the experiment with soluble HLA-B*1801 [30] is “no binding (tested: 100 ug/ml sHLA)”; in the experiment with soluble HLA-B*4002 [31], “no binding (tested: 100 ug/ml sHLA)”; in the experiment with soluble HLA-B*4001, “no binding (tested: 100 ug/ml sHLA)”; with soluble HLA-B*4402 [32] it was “no binding (tested: 100 ug/ml sHLA)”; in the experiment with soluble HLA-A*0101 [33], “binds”; with soluble HLA-A*2902 [34] it was “binds”. Further, the binding result with soluble HLA-A*3601 [35], with soluble HLA-A*3402 [36], with soluble HLA-A*2601 [37] and with soluble HLA-B*1501 was “binds” each time.

B5: LVMAPRTVL (peptide)
peptide: LVMAPRTVL
Regarding B5, the 50% inhibitory concentration (IC50) with B*0702T is 276 nM.
